From the Human Domainome abundance scans (Beltran et al. 2025)
± gives the uncertainty stated by the source.

B1: POU domain, class 2, transcription factor 1, residues 285 to 354; numbered along this chain, P14859 (parent)
chain: LEELEQFAKTFKQRRIKLGFTQGDVGLAMGKLYGNDFSQTTISRFEALNLSFKNMCKLKPLLEKWLNDAE

Variants of: B1
Test: abundance fitness (aPCA) (normalised: wild type 0, dead -1); higher = more abundant; growth selection in yeast, the domain comes from the species named
Details: Homo sapiens

Variant	abundance fitness
P60D	-0.042 ± 0.17
P60S	-0.029 ± 0.029
P60I	-0.059 ± 0.042
P60M	-0.065 ± 0.057
P60N	-0.094 ± 0.041
G23N	0.013 ± 0.046
F7V	0.191 ± 0.27
F7R	-0.437 ± 0.11
F7I	-0.298 ± 0.17
S51W	-0.982 ± 0.052
S51A	-0.055 ± 0.021
S51P	0.002 ± 0.022
S51F	-0.807 ± 0.083
L62S	-0.567 ± 0.031
L62W	-1.08 ± 0.17
L62K	-0.937 ± 0.06
L62Y	-0.069 ± 0.041
L58Q	-0.199 ± 0.04
L58G	-0.632 ± 0.028
K64N	-0.022 ± 0.043
K64W	-0.113 ± 0.033
K64S	0.011 ± 0.027
M29W	-0.625 ± 0.089
G26H	-0.098 ± 0.051

Variant	abundance fitness
G26F	-0.082 ± 0.032
G26Q	-0.014 ± 0.046
G26R	-0.087 ± 0.03
K17T	-0.029 ± 0.028
K17C	-0.046 ± 0.045
K17V	-0.06 ± 0.024
K17R	-0.166 ± 0.063
K17Y	-0.07 ± 0.04
K17N	0.076 ± 0.11
K17E	0.01 ± 0.039
A8I	-0.008 ± 0.054
Q22D	-0.035 ± 0.054
Q22F	-0.129 ± 0.038
Q22A	-0.014 ± 0.024
Q13F	-0.054 ± 0.05
Q13N	-0.049 ± 0.14
Q13V	-0.014 ± 0.023
Q13A	-0.02 ± 0.093
I42C	-0.336 ± 0.16
I42M	-0.276 ± 0.047
I42H	-0.983 ± 0.17
I42A	-0.655 ± 0.021
F20L	-0.081 ± 0.039
F20Q	-0.038 ± 0.031

Variant	abundance fitness
E46K	-0.658 ± 0.1
E46W	-0.698 ± 0.054
L27T	-0.053 ± 0.067
L27I	-0.005 ± 0.035
V25S	-0.843 ± 0.1
K59F	-0.138 ± 0.037
E70D	-0.029 ± 0.031
D36M	-0.121 ± 0.12
D36C	-0.036 ± 0.026
F52P	-0.324 ± 0.17
F52V	0.009 ± 0.021
L66K	-0.476 ± 0.028
L66V	-0.003 ± 0.023
E63S	-0.082 ± 0.11
L18S	-0.094 ± 0.047
L18V	-0.192 ± 0.034
L18I	-0.261 ± 0.1
D68F	-0.011 ± 0.08
Q6N	0.074 ± 0.071
Q6G	-0.012 ± 0.051
W65I	-0.633 ± 0.44
W65C	-0.35 ± 0.17
L61C	-0.188 ± 0.052
L61Q	-0.053 ± 0.047

Variant	abundance fitness
L61T	-0.026 ± 0.053
L50G	-0.074 ± 0.024
L50W	-0.148 ± 0.04
S43F	-0.088 ± 0.03
S43K	0.121 ± 0.11
S43P	-0.03 ± 0.027
M55P	-0.991 ± 0.055
M55Y	-0.153 ± 0.027
M55R	-0.48 ± 0.023
M55F	-0.107 ± 0.04
M55D	-0.381 ± 0.073
T40M	-0.059 ± 0.039
C56H	-0.085 ± 0.04
N35Y	-0.494 ± 0.36
N35H	0.073 ± 0.046
N35P	-0.031 ± 0.02
N35R	0.008 ± 0.021
N35T	0.002 ± 0.02
N35V	-0.057 ± 0.34
F37S	-0.119 ± 0.021
F37E	-0.199 ± 0.075
R44E	-0.059 ± 0.065
N54C	0.011 ± 0.034
N54S	0.009 ± 0.022

Variant	abundance fitness
N54L	-0.005 ± 0.022
K53H	-0.024 ± 0.058
K53A	0.049 ± 0.021
K53Q	-0.019 ± 0.042
K53P	0.007 ± 0.022
K53M	0.078 ± 0.15
N49Y	-0.063 ± 0.086
N49F	-0.279 ± 0.056
N49G	-0.002 ± 0.053
K31Y	-0.069 ± 0.13
K31D	-0.029 ± 0.13
K31P	-0.115 ± 0.022
L1S	-0.055 ± 0.28
L1V	-0.026 ± 0.058
L1M	0.073 ± 0.06
K57A	-0.031 ± 0.03
K12E	-0.046 ± 0.036
K12H	-0.084 ± 0.039
I16Y	-0.117 ± 0.031
I16C	-0.325 ± 0.12
I16S	-0.018 ± 0.042
I16N	-0.105 ± 0.047
I16D	-0.2 ± 0.3
I16A	-0.039 ± 0.078

Variant	abundance fitness
E2H	-0.175 ± 0.057
A47P	-0.964 ± 0.047
A47E	0.055 ± 0.027
A47Q	0.017 ± 0.022
A47H	-0.107 ± 0.059
R15H	-0.725 ± 0.14
R15P	-1.09 ± 0.15
A69K	0.004 ± 0.024
A69H	-0.04 ± 0.028
T41W	-0.088 ± 0.039
T41C	-0.08 ± 0.069
T41D	-0.018 ± 0.072
L32E	-0.005 ± 0.034
D24V	-0.218 ± 0.027
Y33C	-0.04 ± 0.038
Y33M	-0.11 ± 0.067
Y33D	-0.125 ± 0.051
F45R	-1.01 ± 0.043
F45L	-0.115 ± 0.019
F45S	-0.864 ± 0.055
G19H	-0.564 ± 0.36
Q39V	-0.033 ± 0.029
Q39S	0.015 ± 0.03
Q39E	0.013 ± 0.03

Variant	abundance fitness
Q39M	-0.056 ± 0.066
Q39R	0.005 ± 0.021
G34T	-0.16 ± 0.04
G34A	-0.027 ± 0.025
G34E	-0.01 ± 0.028
G34Y	-0.165 ± 0.12
G34S	-0.1 ± 0.026
R14H	-0.156 ± 0.066
R14E	0.028 ± 0.055
E5R	-0.034 ± 0.024
E5K	-0.017 ± 0.04
E5Q	-0.125 ± 0.053
L48P	-0.336 ± 0.026
L48K	0.084 ± 0.036
L48Y	-0.053 ± 0.046
T10V	-0.059 ± 0.02
T10E	0.04 ± 0.041
F11K	-1.09 ± 0.15
F11C	-0.11 ± 0.045
T21P	-0.423 ± 0.035
T21R	-0.198 ± 0.035
G30A	0.014 ± 0.025
G30H	-0.068 ± 0.066
